The source of these data is the DeepSol protein solubility set.

The data set can be described thus: soluble on expression in E. coli; label from the status in PepcDB or PDB records.
In the case of “MGSDKIHHHHHHVTFFERYSRVLFERYQGKVKYWLTFNEINGAQFMPMLSLGMAVREDENMLQSTYQGLHHQFVASSLATKAAREIDPTMQIGCMLIAAPVYPFSSNPVDVQFALEEERMMNYFCGDVHVRGAYPAFAGRFFSENNIELVVEDGDLELLRDYTVDFFSLSYYMSRTEKAEKDGNEAGGNIMSGVKNPYLKASDWGWEINPDGLRIILNKLYDRYQIPLFIVENGLGAYDEIIASNGATLTQTSVSK”, the “soluble on expression in E. coli” value is “not soluble”. Then “MDFITDMSKNQRLELQNRLAQYETSLMVMSHNGDVPVITGFNVMRVTTMLDALKVELPAVAVLGDDAQDLAYVFGARPLAVGVNIIRVVDVPGQQPSALVDAELGALHEVSMVRVLNDIADEQLVKANM”, with “soluble”; and “MGSDKIHHHHHHMANVKWTMKAREFVNCNCAYGCPCQFNAMPTHGFCQAVTGIEIESGHHGATKLDGLRLVGIFRWPGAIHQGGGEAAVVVDERASEAQREALLRILGGQDTKPGATIFEVFSTTLEKFHDPIFAPIEFEVDVDARTGRLHVEGVADGHGEPIKNPVTGAEHRARIDLPHGFEYAMAEIGRGWTKATGPIKFEVADTHSHFANLHLTQSGVVH”, with “not soluble”. For “MAHHHHHHMQLMRAVTLKGFGDTDMLQISRIPKAVITRGRDILIKVSAAGVNRADAAQRKGHYLPPKGSSEVLGLEVSGIVEEVGVDVKDFKEGDKVMALLPGGGYAEYAVAHEGSVMHIPQGYSFIEAAAIPEAFLTAWQALKYHGDCCKGQKVLIHAGASGVGTAAAQLVEKYFQATALTTSSESKVEVCKNFASINFTRTPDETGMCFSPKVKRLLGEGAINLVLDSVFGGSYISEDAAVLAKDGRIVVLAFMGGATVHLNCLPLLRQRAHVMFSKLRCQSDDYKQNLVDTFEEAVIPYMNERLIVPVANKTYPLEEVAQAHMRLDDSKAWGKIVLTFNSHLSATSTNPPPTLTA”, the “soluble on expression in E. coli” value is reported as “not soluble”. Consider “MPASEDYEGQVPAWCPGCGNFQILSTIKQALAELGIEPREVLLVSGIGQAGKLPHYIKCHTFNGLHGRTLPVATAAKLANHSLHVIAVAGDGDCYAEGGNHFLHAIRRNPNISLFVHNNQIYGLTKGQASPTSAKGTHTPAQPFGYLAHPFNPLALAISQDCSFVARGFAGDQEHLKELIKAAITHRGFSLLDILQPCVTFNKVNTFKWYRERVYRLESDYDPYNQTKAFEKALEWGDKIPNGIFYKSDKETLEEMMPTLHEMPLVRKKFSPEDVKHEIEKFY”, for which the “soluble on expression in E. coli” value is “not soluble”.

On to “MGSDKIHHHHHHMTAQFDDATLTKRLAKGTGEILKGVRNVGLLRGRELGEAGDDLAQNWIARVLEQHRPDDGFLSEEAADNPERLGKDRVWIIDPLDGTKEFATGRQDWAVHIALVENGVPTHAAVNLPDLGVVFHSSEVRAVGGPYAKKIAISHNRPPAVATHIAESLGFTAEPMGSAGAKAMHVLLGDYDAYIHAGGQYEWDSAAPVGVSLAAGLHCSRLDGTPLNYNNKDTYLPDVLICRPELADDILTMAAAFREENGSY”, for which the “soluble on expression in E. coli” value is given as “not soluble”. Turning to “MHHHHHHSSGVDLGTENLYFQSMTLESMNPQVKAVEYAVRGPIVLKAGEIELELQRGIKKPFTEVIRANIGDAQAMGQQPITFLRQVMALCTYPNLLDSPSFPEDAKKRARRILQACGGNSLGSYSASQGVNCIREDVAAYITRRDGGVPADPDNIYLTTGASDGISTILKILVSGGGKSRTGVMIPIPQYPLYSAVISELDAIQVNYYLDEENCWALNVNELRRAVQEAKDHCDPKVLCIINPGNPTGQVQSRKCIEDVIHFAWEEKLFLLADEVYQDNVYSPDCRFHSFKKVLYEMGPEYSSNVELASFHSTSKGYMGECGYRGGYMEVINLHPEIKGQLVKLLSVRLCPPVSGQAAMDIVVNPPVAGEESFEQFSREKESVLGNLAKKAKLTEDLFNQVPGIHCNPLQGAMYAFPRIFIPAKAVEAAQAHQMAPDMFYCMKLLEETGICVVPGSGFGQREGTYHFRMTILPPVEKLKTVLQKVKDFHINFLEKYA”, the “soluble on expression in E. coli” value is given as “soluble”. Take “MIITVASFKGGVGKTTTAVHLSAYLALQGETLLIDGDPNRSATGWGKRGSLPFKVVDERQAAKYAPKYQNIVIDTQARPEDEDLEALADGCDLLVIPSTPDALALDALILTIETLQKLGNNRFRILLTIIPPYPSKDGDEARQLLTTAGLPLFKRGIKRYSAFQKASLNGVVVSEVSDSKAGIAWSDYKATGKEIVEEILILEHHHHHH”: the “soluble on expression in E. coli” value is “soluble”. As for “HEHPTSAGGDGGAGTGAVGTHDGSAAAAAAAAALPSISGARGHAGPEGGHDNDMGGMDASGGGGGGGYGRLPGLAAQSSMASVDGDEASLPPIANLSLGKANMTGSTVGGAAHASTRRSTLNTYYEPGAGGGGGTGGAGGGGGGAGPGPAGYGKVAKAAAVGGAGSVAGGGGVVGGAGVGGGGAVGSGTVGRRQSVGVVVGKYGSVNKQASQGHGGGGPGVAGAAGMAVTGGHAGGGVGGGGGGAVGVGGVGVNKYKANVGKTNSKYISPYSLRQLAG”, the “soluble on expression in E. coli” value was “not soluble”. As to “MTVRALLTPEIAPRMGIVLFRPGSELMPLFMQGRVLLEPEPERYSSFASGAVPAASQPLADDPAVRAVFRNEAVIRRAGGVECLESWLLREKGCQWPHSDWHSENMTTMRHAPGAIRLCWHCDNQLRDQFTERLESMATDNCARWVLSVVRRDLGFDDSHVVTMPELCWWLVRNDLADALPESAARKALRLPKPVVPSVTRESDLVPSVPATSIIQDKAKKVLALKVDPESPESFMLRPKRRRWVNEKYTRWVKTQPCACCGKPADDPHHLIGHGQGGMGTKAHDLFVLPLCRKHHDELHADTVTFEEKYGSQLELIFRFIDRALAIGVLA”, the “soluble on expression in E. coli” value was “not soluble”. Turning to “MAWASPDGHCTVEHSADSVHLWRFEHSVYDGFDTHWTATFTPEVPERLVAQFFTHLATTTPVERVFRDVPYLVQSLDAALITPVNRAAVNPHVHHAGAQLGRAVHRRLEHHHHHH”, the “soluble on expression in E. coli” value was “not soluble”. For the sequence “MGSIGSMGKPIEGFLVAAIQFPVPIVNSRKDIDHNIESIIRTLHATKAGYPGVELIIFPEYSTQGLNTAKWLSEEFLLDVPGKETELYAKACKEAKVYGVFSIMERNPDSNKNPYNTAIIIDPQGEIILKYRKLFPWNPIEPWYPGDLGMPVCEGPGGSKLAVCICHDGMIPELAREAAYKGCNVYIRISGYSTQVNDQWILTNRSNAWHNLMYTVSVNLAGYDNVFYYFGEGQICNFDGTTLVQGHRNPWEIVTGEIYPKMADNARLSWGLENNIYNLGHRGYVAKPGGEHDAGLTYIKDLAAGKYKLPWEDHMKIKDGSIYGYPTTGGRFGK”, the “soluble on expression in E. coli” value is reported as “soluble”. For “MENFHFEHRGPRRDRFARERTGRPEGPHRHGHRRGRFGPEGDPGFGPGMHFGRGRGRGGRGRRGDVRSAILLLLTEEPMHGYELIQQIVERSDGVWKPSPGSIYPALSQLEDEGLVLIEKVAGRKTARLTDEGEAFVEANKTELGTPWDDVRESVGRPAEDLRGLIGLLMGAAGQVAAVGDDEQVRRAGEILTEARRAMYRLLAEDDQSEAGKDDTDS”, the “soluble on expression in E. coli” value is given as “not soluble”. Consider “MSLIEKLEEIFKKGSVTYYNSSYFFPKKIREDVTKLYAFVRVFDDLVDSVPQKIEEYYNLRKLYQLEKSGYNTGNIVLQNFVELARRKGFEDSWIDAFLDAMESDIYKKVYYSIEELLKYMYGSAEVVGLFMMKILDLHNDSMYYARMLGRAMQFLNFIRDVQEDLYLGRQYLPVEDMEKFGIDKMECNEGFIEFIRYEISRYFEFEREAEKGFKFIPARYLVPIKTASEMYKWSALRIKKSPCIVLSKKVKPRRTKIVITVIKNFAGVYLWRSLNPIEGHHHHHH”, for which the “soluble on expression in E. coli” value was “soluble”. “MAVKLGTLLLALALGLAQPASARRKLLVFLLDGFRSDYISDEALESLPGFKEIVSRGVKVDYLTPDFPSLSYPNYYTLMTGRHCEVHQMIGNYMWDPTTNKSFDIGVNKDSLMPLWWNGSEPLWVTLTKAKRKVYMYYWPGCEVEILGVRPTYCLEYKNVPTDINFANAVSDALDSFKSGRADLAAIYHERIDVEGHHYGPASPQRKDALKAVDTVLKYMTKWIQERGLQDRLNVIIFSDHGMTDIFWMDKVIELNKYISLNDLQQVKDRGPVVSLWPAPGKHSEIYNKLSTVEHMTVYEKEAIPSRFYYKKGKFVSPLTLVADEGWFITENREMLPFWMNSTGRREGWQRGWHGYDNELMDMRGIFLAFGPDFKSNFRAAPIRSVDVYNVMCNVVGITPLPNNGSWSRVMCMLKGRAGTAPPVWPSHCALALILLFLLA”: the “soluble on expression in E. coli” value is given as “soluble”. Turning to “GSQQGKFDTKGIESTDEAKMSFLVTLNNVEVCSENISTLKKTLESDCTKLFSQGIGGEQAQAKFDSCLSDLAAVSNKFRDLLQEGLTELNSTAIKPQVQPWINSFFSVSHNIEEEEFNDYEANDPWVQQFILNLEQQMAEFKASLSPVIYDSLTGLMTSLVAVELEKVVLKSTFNRLGGLQFDKELRSLIAYLTTVTTWTIRDKFARLSQMATILNLERVTEILDYWGPNSGPLTWRLTPAEVRQVLALRIDFRSEDIKRLRL”, the “soluble on expression in E. coli” value is listed as “soluble”. With “MGSDKIHHHHHHMIHTLQAQSNEITIPFAELDLLSHLTSEFEPKLFQQKIERLHQLDPGHPLPGIAKAYAFFHEQNFSAARRQLEQARSETGDHVRAHLLLGLMSEVENFQHEAERHFLDALSLFPEEPSVHRHLAVHYHEREFFGEAASHALQYLKKIGPGGEGTLMTIDMMQSMPGHDEHVLESLYSLLFEIPEHHHDMVFHSIAANNAEMRYELFHQALDGEPDEATVFRLDSMLSLMVEHSMWAAVYDQTKDRMCRTVFDTLCRDLTYRHAGIRSIPLYLTIRSRYFMRCLLHRS”, the “soluble on expression in E. coli” value is “not soluble”. Take “SADPGPDPESESESVFPREVGLFADSYSEKSQFCFCGHVLTITQNFGSRLGVAARVWDAALSLCNYFESQNVDFRGKKVIELGAGTGIVGILAALQGGDVTITDLPLALEQIQGNVQANVPAGGQAQVRALSWGIDHHVFPANYDLVLGADIVYLEPTFPLLLGTLQHLCRPHGTIYLASKMRKEHGTESFFQHLLPQHFQLELAQRDEDENVNIYRARHREPRPA”: the “soluble on expression in E. coli” value is listed as “not soluble”. Under “KSGKEAGSQIMKFEVQDASPTIATELNLVTGEQVYYIKRLRFIEDNAAQLEETWMSVARFPDLTVSHMQKSKFSYIENECGIKIIGTFETFSPTFPTPEIASILRISPRDPILKIQTQAVDSNSIPLDYSLLYSNIFEFQVKYFFPR” stands “not soluble”; under “MSLDFNDEIYRELNRICASLSQQCSTYQPEFRTCLDAAFQALRGGKLIRPRMLLGLYNTLVDDDIEVKLNTVLQVAVALELLHFSLLVHDDVIDGDLYRRGKLNFIGQILMHRTPESFAQIQRDPEHLDWAQSNGLLMGNLFLAATHQIFARLDLPHHQRVRLLDLLNHTINDTIVGEFLDVGLSSKAISPNMDIALEMSRLKTATYTFELPMRAAAILAELPQEIETKIGEIGTNLGIAYQLQDDYLSTFGDAAEHGKDAFSDLREGKETTIIAFARDTAKWTDIQDNFGSADLSTSQAERIQHLLIQCGAKNHSLNAISDHLNICRSMIKTLSPQVDPKAQNLLLKQVEQLASRKSEGHHHHHH”, “soluble”; under “MKAINIALDGPAAAGKSTIAKRVASELSMIYVDTGAMYRALTYKYLKLNKTEDFAKLVDQTTLDLTYKADKGQCVILDNEDVTDFLRNNDVTQHVSYVASKEPVRSFAVKKQKELAAEKGIVMDGRDIGTVVLPDADLKVYMIASVEERAERRYKDNQLRGIESNFEDLKRDIEARDQYDMNREISPLRKADDAVTLDTTGKSIEEVTDEILAMVSQIK”, “soluble”.
